Experimental data reported in US11826422B2, “Methods and compositions for adaptive immune modulation” (THE BOARD OF REGENTS OF THE UNIVERSITY OF TEXAS SYSTEM, priority 2016, dated 2023).

B1: ovalbumin (protein, UniProt P01012 2-386, looked up)
Ovalbumin: GSIGAASMEFCFDVFKELKVHHANENIFYCPIAIMSALAMVYLGAKDSTRTQINKVVRFDKLPGFGDSIEAQCGTSVNVHSSLRDILNQITKPNDVYSFSLASRLYAEERYPILPEYLQCVKELYRGGLEPINFQTAADQARELINSWVESQTNGIIRNVLQPSSVDSQTAMVLVNAIVFKGLWEKAFKDEDTQAMPFRVTEQESKPVQMMYQIGLFRVASMASEKMKILELPFASGTMSMLVLLPDEVSGLEQLESIINFEKLTEWTSSNVMEERKIKVYLPRMKMEEKYNLTSVLMAMGITDVFSSSANLSGISSAESLKISQAVHAAHAEINEAGREVVGSAEAGVDAASVSEEFRADHPFLFCIKHIATNAVLFFGRCVSP
notes: model antigen/allergen, Grade V, Sigma

What was measured:
[1] = cited from earlier work
[2] = system: total IgE; experiment: Serum total IgE by sandwich ELISA, OVA sensitization and aerosol challenge mouse model; type: in vivo; parameters: unit not given here; details: mean±SEM
Experimental: (§1) Female BALB/c mice (6-10 weeks of age) were purchased from Charles River, Wilmington, Mass., and housed five mice per cage in a 12/12 h light/dark cycle with food and water available ad libitum. All experimental procedures were approved by the institutional animal ethics committee (IAUCUC) at the Institute of Biosciences and Technology, Texas A&M HSC.
(§2) Synthetic TLR ligands (referred to as O/P) were purchased from InvivoGen (San Diego, Calif.), reconstituted in endotoxin-free water, and suspended in 8 ml sterile PBS at the following concentrations: Pam2 10 μg/ml; ODN2395 20 μg/ml. Mice were sensitized to ovalbumin (OVA) ([…], Grade V, 2.25 mg alum in saline, pH7.4; Sigma, St. Louis, Mo.) administered by intraperitoneal (IP) injection once weekly for one or two weeks. Sensitized mice were exposed for 30 min to an aerosol of 2.5% (wt/vol) ovalbumin in 0.9% saline, via Aerotech II nebulizer (CIS US, Inc.) combined with or without O/P in the presence of room air supplemented with 5% CO2 to promote maximal ventilation and homogeneous aerosol exposure throughout the lungs.
Serum immunoglobulin concentrations were determined by standard sandwich ELISA technique using 96 well Easywash high binding flat bottom plates (Corning). All reagents were diluted in assay diluent (TBS+0.1% BSA [Calbiochem]) except for the coating reagent, which was diluted in TBS only. All wells were washed with wash buffer (TBS+0.1% Tween-20) 3×s, 5 minutes per wash, and all samples developed by adding TMB Substrate Reagent (BD Biosciences) for 30 minutes in the dark. Reactions were stopped by addition of 2N H2SO4 and absorbance read at 450 nm. All readings used in the data fell within the linear portion of the standard curves.
The same protocol was followed for determining total IgE using the following amounts of reagents: 2 μg/mL goat anti-mouse IgE (AbD Serotec, STAR166), 2 μg/mL Biotin Rat Anti-Mouse IgE (BD Biosciences, clone R35-118). For OVA IgG1, the following amounts of reagents were used: 100 μg/mL OVA (Sigma) and 0.1 μg/mL Biotin Rat Anti-Mouse IgG1 (eBioscience, clone M1-14D12). For total IgG1: 2 μg/mL Rat Anti-Mouse IgG1 (BioLegend, clone RMG1-1), 0.05 μg/mL Biotin Rat Anti-Mouse IgG1 (eBioscience, clone M1-14D12). For IgG2a: 2 μg/mL Rat Anti-Mouse IgG2a (BioLegend, clone RMG2a-62) and 0.05 μg/mL Biotin Goat Anti-Mouse IgG2a (AbD Serotec, 108008). For total IgG: 2 μg/mL Goat Anti-Mouse IgG (AbD Serotec, 103001) and 0.025 μg/mL Biotin Sheep Anti-Mouse IgG (AbD Serotec, AAC10B).

[3] = system: OVA-specific IgE; experiment: Serum OVA-specific IgE by sandwich ELISA, OVA sensitization and aerosol challenge mouse model; type: in vivo; details: mean±SEM
Experimental: as §1, §2
(§3) Serum immunoglobulin concentrations were determined by standard sandwich ELISA technique using 96 well Easywash high binding flat bottom plates (Corning). […] Reactions were stopped by addition of 2N H2SO4 and absorbance read at 450 nm. All readings used in the data fell within the linear portion of the standard curves. […]

[4] = system: IgG1; experiment: Serum total IgG1 by sandwich ELISA, OVA model; type: in vivo, mouse; details: FIG. 2; aerosol 6×, Groups 4 and 6; mean±SEM
Experimental: as §1, §2, §3

[5] = system: IgG2a; experiment: Serum IgG2a by sandwich ELISA, OVA model; type: in vivo, mouse; details: FIG. 2; aerosol 6×, Group 6; mean±SEM
Experimental: as §1, §2, §3

[6] = system: eosinophils (EOS) in BAL; experiment: BAL total and differential cell counts (Wright-Giemsa), OVA model; type: in vivo, mouse; details: FIG. 3B; sensitization optimization, Group 8: two IP OVA/alum, aerosol two times/week
Experimental: as §2
BAL was obtained by instilling and withdrawing two, 1 ml aliquots of PBS via trachea cannula (luer stub adapter, BD Biosciences). Total leukocyte count was determined with a hemocytometer (Houser Scientific, Horsham, Pa.), and slides for differential cell count were prepared by cytospin of 300 μl of BAL fluid at 500×g for 5 min, followed by Wright-Giemsa staining.

Molecule | solubility in dimethyl sulfoxide and dimethylformamide ([1]; dimethyl sulfoxide, dimethylformamide) | solubility in methanol and 95% ethanol ([1]; methanol, 95% ethanol) | solubility in water ([1]; water) | total IgE ([2]; FIG. 1B, serum, day 21, aerosol 6× (three times/week for 2 weeks from second immunization), Groups 4 and 6) | total IgE ([2]; FIG. 4, sensitization optimization, Group 5: one IP OVA/alum, OVA aerosol two times/week) | total IgE ([2]; FIG. 4, sensitization optimization, Group 8: two IP OVA/alum, OVA aerosol two times/week) | total IgE ([2]; FIG. 6 top panel, two OVA immunizations, aerosol schedule of FIG. 5A, Groups 2 and 3) | OVA-specific IgE ([3]; FIG. 1C, serum, day 21, aerosol 6×, Groups 4 and 6) | OVA-IgE ([3]; FIG. 6 second panel, aerosol schedule of FIG. 5A, Groups 2 and 3) | IgG1 levels [4] | IgG2a levels [5] | eosinophils (EOS) in BAL [6]
CCC(=O)O[C@]1(C(=O)SCF)[C@H](C)C[C@H]2[C@@H]3C[C@H](F)C4=CC(=O)C=C[C@]4(C)[C@@]3(F)[C@@H](O)C[C@@]21C [Fluticasone propionate, S-(fluromethyl)6α,9-difluoro-11β-17-dihydroxy-16α-methyl-3-oxoandrosta-1,4-diene-17β-carbothioate,17-propionate] | freely soluble | slightly soluble | practically insoluble |  |  |  |  |  |  |  |  | 
B1 |  |  |  | 17.23±1.82 | 5.36±1.70 | 11.05±2.39 | 24.66±8.23 | 4.36±0.82 | 3.77±1.00 | 6.01±0.66 | 25±3 | elevated compared to all other groups
